Measured values: patent US10799584B2, “Combination therapies using agents that target tumor-associated stroma or tumor cells and alkylating agents” (BIOMED VALLEY DISCOVERIES, INC., priority 2014, dated 2020)

B1: M830: TEM8 monoclonal antibody (hIgG1), VH SEQ ID NO:5, VL SEQ ID NO:6 (antibody, V domains shown)
VH: EVQLVESGGGVVQPGRSVRLSCAASGFTFSTYTMHWVRQAPGKGLEWVAIISNDGSNKYYADPVRGRFTISRDNSKNTLYLQMNSLRAEDTAVYYCVRGSSWYRGNWFDPWGQGTLVTVSS
VL: DIQMTQSPSSLSASVGDRVTIACRASQTISRYLNWYQQKPGKAPKLLIYAASSLQSGVSSRFSGSGSGTEFTLTISSLQPEDFATYFCQQTYSPPITFGQGTRLEIKR
modifications: TEM830 mAb VH; TEM830 mAb VL

What was measured:
H460 tumors = assay: H460 xenograft model, M830 with gemcitabine, cisplatin or radiation; assay type: in vivo, nude mice; conditions: endpoint 2000 mm^3 or Day 58; logrank
Source text: (§1) The statistical tests were not adjusted for multiple comparisons.
Treatment began on Day 1 in eight groups of nude mice (n=10) with established subcutaneous H460 tumors of 75-126 mm^3. […] The study endpoint was a tumor volume of 2000 mm^3 or the final day, Day 58, whichever came first. […] The median TTE for controls was 15.6 days, establishing a maximum possible TGD of 42.4 days (272%) for the 58-day study.

HCT116 tumor cells = assay: HCT116 colorectal carcinoma xenograft model, TEM8 antibodies; assay type: in vivo, mice; conditions: HCT116 Colon; no combination partner; M830 IP 3 times per week; start at 60-80 mm^3
Procedure: Tumor cells were cultured in RPMI-1640 medium supplemented with 10% fetal bovine serum, 2 mM glutamine, 100 units/mL penicillin G sodium, 100 μg/mL streptomycin sulfate, and 25 μg/mL gentamicin. The tumor cells were grown in tissue culture flasks in a humidified incubator at 37° C., in an atmosphere of 5% CO2 and 95% air.
2.5×10^6 to 5×10^6 HCT116 tumor cells were injected subcutaneously into the flank of mice. Tumor weights were calculated following surgical removal. Treatment was initiated when tumor volume reached 60-80 mm^3. Dosing volume was 10 mL/kg (0.2 mL/20 g mouse).
TEM8 Ab (hIgG1) doses were 5 and 15 mg/kg, three times per week, for 3 weeks. Bevacizumab was dosed at 5 mg/kg, twice per week, for 3 weeks. FIG. 1B and FIG. 1D show mean tumor growth and percent body weight change for each group, respectively, over the time course of the study.

H460 cells = assay: H460 non-small cell lung carcinoma xenograft model, M830 with bevacizumab or paclitaxel; assay type: in vivo, athymic nude mice; conditions: for % Tumor Reduction vs. combination partner at Day (#): Day 32
Procedure: Animals were monitored for regression responses.
as §1
Cultured H460 cells were harvested during exponential growth and resuspended in phosphate buffered saline at a concentration of 1×10^8 cells/mL. 1.0×10^7 tumor cells were injected subcutaneously into the flank of athymic nude mice. Animals were euthanized when tumors reached the pre-determined volume endpoint of 2000 mm^3 or on the final day (Day 88), whichever came first.

DLD-1 tumor cells = assay: DLD-1 colorectal adenocarcinoma xenograft model, first study; assay type: in vivo, mice; conditions: DLD1 Colon, Day 21
Procedure: Tumor weights were calculated following surgical removal. […] Irinotecan was given once per week at 60 mg/kg i.v. and bevacizumab was dosed at 5 mg/kg i.p., three times per week.

[1] = combination partner Bevacizumab

| Molecule | outcome (survival) compared to vehicle-treated controls (H460 tumors) | % Tumor Reduction vs. Vehicle at Day 21 (HCT116 tumor cells) [%^] | % Tumor Reduction vs. combination partner at Day (#) (H460 cells; [1]) [%] | % Tumor Reduction vs. Vehicle at Day 21 (H460 cells; combination partner Bevacizumab, M830 IP 3 times per week) [%^] | regression (vs. Vehicle at Day 21) (H460 cells; combination partner Paclitaxel) | % Tumor Reduction vs. combination partner at Day (#) (H460 cells; combination partner Paclitaxel) [%] | % Tumor Reduction vs. combination partner at Day (#) (DLD-1 tumor cells; [1]) [%] | % Tumor Reduction vs. combination partner at Day (#) (DLD-1 tumor cells; combination partner Irinotecan) [%] |
| --- | --- | --- | --- | --- | --- | --- | --- | --- |
| N.N.[Cl][Pt][Cl] [Cisplatin, cisplatin] | statistically significant survival benefit | – | – | – | – | – | – | – |
| Nc1ccn([C@@H]2O[C@H](CO)[C@@H](O)C2(F)F)c(=O)n1 [gemcitabine] | not statistically different | – | – | – | – | – | – | – |
| B1 | not statistically different | 39.5 | 58.5 | 94.5 | (−61% | 94 | 48 | 53 |
